According to US20110195072A1, “NON-NEUROENDOCRINE CANCER THERAPY” (priority 2006, published 2011):

Legend:
Type in all cases: cell-based, human
[1] = tested on: Ret; assay: Ret expression after siRNA transfection (Western blot and PCR) in MCF7 cells; details: 20 nM siRNA
Protocol: MCF7 cells are seeded at a density of 10^5 cells/well in 6 well plates. 24 hours after seeding, cells are transfected with control lacZ siRNA or Ret siRNA (Qiagen, 96165/96166) at a final siRNA concentration of 20 nM using HiPerFect transfection reagent (Qiagen, 301705). siRNA targeting sequences are as following:
Ret9 and Ret51 protein expression is analyzed 72 hours post siRNA transfection using polyclonal antibodies from Santa Cruz (C-19 against Ret9: sc-167; C-20 against Ret51: sc-1290) and direct Western Blot analysis with 50 μg of total protein extract (FIG. 2 Panel A). […] As a control, total RNA is extracted in a parallel experiment (RNeasy, 74104, Qiagen). First-strand cDNA is synthesized using SuperScript III First-Strand Synthesis System for RT-PCR (Invitrogen, 18080-051), using random hexamer primers.

[2] = tested on: T47D cells; assay: GDNF-induced Erk (MAPK) activation after siRNA transfection, immunoblot; details: 72 hrs after siRNA transfection, 10 ng/ml GDNF with 100 ng/ml GFRα1 for 30 min
Protocol: (§1) MCF7 and T47D cells are seeded at 5×10^5/4 ml in 6 cm plates for 24 hrs. Cells are transfected with siRNAs targeting Ret (siRet1: […] siRet2: […]; Qiagen) or a control siRNA targeting LacZ ([…]) using Oligofectamine (12252-011, Invitrogen) and HiPerFect, respectively. After 72 hrs, cells are stimulated with 10 ng/ml GDNF alone (for 10 min in MCF7) or together with 100 ng/ml GFRα1 (for 30 min in T47D; rhGFRα1/Fc chimera 714-GR, R&D Systems), extracted and resolved by 12.5% SDS-PAGE electrophoresis and immunoblot analysis is performed using rabbit polyclonal antibodies against Erk (MAPK) and phospho-Erk (p-MAPK: see FIG. 7).

[3] = tested on: MCF7 cells; assay: as above; details: 72 hrs after siRNA transfection, 10 ng/ml GDNF for 10 min
Protocol: as §1

[4] = tested on: T47D cells; assay: GDNF stimulation of Erk and JNK/SAPK phosphorylation, immunoblot; details: 100 ng/ml GDNF, 5 min to 8 hrs
Protocol: (§2) MCF7 and T47D cells are seeded at 3×10^6/15 ml and 3×10^6/10 ml in 15 and 10 cm plates for 2 days respectively. Cells are serum deprived (0.1% FCS) for 16 to 24 hrs or refed with normal medium. Cells are stimulated with 100 ng/ml GDNF (450-10, PeProTech) for 5, 10, 20, or 30 min 1, 4 or 8 hrs. Cell extracts are resolved by 10 or 12.5% SDS-PAGE electrophoresis and immunoblot analysis is performed using rabbit polyclonal antibodies raised against Erk (MAPK: 9102, Cell Signaling Technology) phospho-Erk (P-MAPK: […]; 9101) JNK/SAPK (9251) and phospho-JNK/phospho-SAP (Thr183/Tyr185; 9252) (see FIG. 6).

[5] = tested on: MCF7 cells; assay: as above; details: 100 ng/ml GDNF, 5 min to 8 hrs
Protocol: as §2

[6] = tested on: T47D cells; assay: Soft agar colony assay (anchorage-independent proliferation); details: 10 or 100 ng/ml GDNF with 100 ng/ml GFRα1, every week for 4 weeks
Protocol: (§3) MCF7 and T47D cells are treated with 10 or 100 ng/ml GDNF alone (MCF7) or together with 100 ng/ml GFRα1 (T47D) for 10 to 20 min in suspension and subsequently seeded at 10^5/2 ml in 6-well plates in a soft agar layer. Cells are treated again with GDNF alone or together with GFRα1 every week for 4 weeks in fresh medium. Colonies are stained with nitrotetrazolium blue and counted (Artek counter 880, Dynatech Laboratories).

[7] = tested on: MCF7 cells; assay: as above; details: 10 or 100 ng/ml GDNF alone, every week for 4 weeks
Protocol: as §3

[8] = tested on: T47D cells; assay: Anchorage-independent cell proliferation (polyheme assay); details: 10 ng/ml GDNF with 100 ng/ml GFRα1 for 4 days, polyheme-coated plates
Protocol: (§4) MCF7 and T47D cells are seeded at 5×10^5/4 ml in 6 cm plates coated with polyheme (P3932, Sigma) to prevent adhesion of the cells to the substratum. Cells are treated with 10 ng/ml GDNF alone (MCF7) or together with 100 ng/ml GFRα1 (T47D) for 4 days. Cells were collected, trypsinized and counted (Vi-cell XR, Beckman Coulter).
(§5) MCF7 and T47D cells are seeded at 10^6/4 ml in 6 cm plates coated with polyheme. Cells are pretreated with 100 nM of a Ret inhibitor [repeat name of compound from earlier] or the vehicle DMSO for 1 hr, and then treated with 10 ng/ml GDNF alone (MCF7) or together with 100 ng/ml GFRα1 (T47D) for 4 days. Cells are collected, trypsinized and counted (Vi-cell XR, Beckman Coulter).

[9] = tested on: MCF7 cells; assay: as above; details: 10 ng/ml GDNF alone for 4 days, polyheme-coated plates
Protocol: as §4, §5

| Molecule | Ret9 protein expression (Western blot signal) ([1]; 72 hours post transfection, antibody C-19) | Ret51 protein expression (Western blot signal) ([1]; 72 hours post transfection, antibody C-20) | Ret mRNA expression (PCR) ([1]; parallel experiment) | GDNF-induced activation of Erk (MAPK) [2] | GDNF-induced activation of Erk (MAPK) [3] | phosphorylation of Erk [4] | phosphorylation of JNK/SAPK [4] | phosphorylation of Erk [5] | phosphorylation of JNK/SAPK [5] | number of colonies in soft agar [6] | number of colonies in soft agar [7] | anchorage-independent cell proliferation (cell count) [8] | anchorage-independent cell proliferation (cell count) [9] |
| --- | --- | --- | --- | --- | --- | --- | --- | --- | --- | --- | --- | --- | --- |
| siRet1: siRNA targeting Ret, targeting sequence CCGCTGGTGGACTGTAATAAT (Qiagen) (target sequence only, siRNA duplex strands not listed, further chemistry not given here) | reduction in signal | reduction in signal | reduction in Ret mRNA | prevents | prevents |  |  |  |  |  |  |  |  |
| siRet2: siRNA targeting Ret, TAGGCTGGTTCTCAACCGGAA (Qiagen) (target sequence only, siRNA duplex strands not listed, further chemistry not given here) |  |  |  | prevents | prevents |  |  |  |  |  |  |  |  |
| GDNF: glial-derived neurotrophic factor, specific ligand of Ret (450-10, PeProTech) (protein, UniProt P39905 78-211, looked up, recombinant, PeProTech) Glial cell line-derived …: SPDKQMAVLPRRERNRQAAAANPENSRGKGRRGQRGKNRGCVLTAIHLNVTDLGLGYETKEELIFRYCSGSCDAAETTYDKILKNLSRNRRLVSDKVGQACCRPIAFDDDLSFLDDNLVYHILRKHSAKRCGCI |  |  |  |  |  | increased phosphorylation | increased phosphorylation | increased phosphorylation | increased phosphorylation | significantly increased the number of colonies in a concentration-dependent manner | significantly increased the number of colonies in a concentration-dependent manner | significantly enhances | significantly enhances |
